Data on two molecules can be found in paper PMC10828781, “Genome variation and LTR-RT analyses of an ancient peach landrace reveal mechanism of blood-flesh fruit color formation and fruit maturity date advancement”.

For this data set, the target named is PpBL (Prunus persica, UniProt M5WDM1 1-437). Nature of the data set: EMSA; 5x, 10x, 50x competitor probe; EMSA: room temperature 30 min, 6% native PAGE in 0.5x TBE at 4 C, 60 V 1 h, binding buffer not stated; pull-down: 1 ug DNA-bead complex with 300 ul nuclear proteins, 20 min room temperature. The settings on record: protein: recombinant; (pGEX-6p-1 vector); label: biotin. On the technique in general: Mobility shift assays separate free from complexed probe on a gel.
PpBL, sequence (M5WDM1 entry or part of it): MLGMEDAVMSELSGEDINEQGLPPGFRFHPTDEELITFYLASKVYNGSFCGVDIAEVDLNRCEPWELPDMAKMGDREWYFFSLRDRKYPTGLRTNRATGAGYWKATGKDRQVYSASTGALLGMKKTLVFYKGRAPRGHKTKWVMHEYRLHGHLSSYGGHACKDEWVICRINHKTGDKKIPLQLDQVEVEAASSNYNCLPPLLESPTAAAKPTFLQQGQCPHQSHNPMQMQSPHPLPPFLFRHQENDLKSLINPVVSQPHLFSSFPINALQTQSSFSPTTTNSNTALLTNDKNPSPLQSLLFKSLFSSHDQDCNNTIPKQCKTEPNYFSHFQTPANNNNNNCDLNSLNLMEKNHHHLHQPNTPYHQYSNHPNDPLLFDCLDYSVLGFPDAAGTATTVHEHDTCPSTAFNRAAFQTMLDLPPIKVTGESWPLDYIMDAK

B1: PpACS1 promoter probe (dsDNA)
DNA 1: TACAACACGCAAGCAATTAC
DNA 2: GTAATTGCTTGCGTGTTGTA
For the molecule B1, the binding result was “binds”.

B2: PpACO1 promoter probe (dsDNA)
DNA 1: ACAGTAATTTGCTTGCTTTC
DNA 2: GAAAGCAAGCAAATTACTGT
In the case of B2, the binding result was “binds”.
